Experimental data reported in patent US20170101472A1 (Regeneron, published 2017).

T1: recombinant human LAG3 expressed with a C-terminal mouse IgG2a mFc tag (human)
T1 construct: Called dimeric; also called hLAG3-mFc; hLAG3 dimer
T1 chain: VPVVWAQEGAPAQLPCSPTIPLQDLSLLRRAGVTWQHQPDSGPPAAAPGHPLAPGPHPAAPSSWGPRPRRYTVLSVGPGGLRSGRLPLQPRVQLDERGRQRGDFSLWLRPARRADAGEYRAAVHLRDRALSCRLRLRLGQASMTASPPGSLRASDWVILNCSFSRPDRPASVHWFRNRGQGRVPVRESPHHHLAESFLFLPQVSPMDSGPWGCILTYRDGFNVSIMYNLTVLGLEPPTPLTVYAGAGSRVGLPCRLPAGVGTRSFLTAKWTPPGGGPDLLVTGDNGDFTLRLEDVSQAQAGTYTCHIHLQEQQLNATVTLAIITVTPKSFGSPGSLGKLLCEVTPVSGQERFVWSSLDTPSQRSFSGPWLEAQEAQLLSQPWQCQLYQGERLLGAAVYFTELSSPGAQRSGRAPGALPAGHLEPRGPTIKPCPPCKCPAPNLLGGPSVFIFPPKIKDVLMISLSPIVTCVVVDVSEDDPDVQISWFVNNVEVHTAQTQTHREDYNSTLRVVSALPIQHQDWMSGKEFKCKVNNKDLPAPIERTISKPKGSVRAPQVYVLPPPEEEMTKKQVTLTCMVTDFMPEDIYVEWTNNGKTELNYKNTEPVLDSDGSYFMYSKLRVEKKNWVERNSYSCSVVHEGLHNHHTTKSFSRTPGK

T2: human LAG3 expressed on HEK293 cells (human, UniProt P18627 23-525)
T2 construct: also called hLAG3; HEK293/hLAG3
T2 sequence: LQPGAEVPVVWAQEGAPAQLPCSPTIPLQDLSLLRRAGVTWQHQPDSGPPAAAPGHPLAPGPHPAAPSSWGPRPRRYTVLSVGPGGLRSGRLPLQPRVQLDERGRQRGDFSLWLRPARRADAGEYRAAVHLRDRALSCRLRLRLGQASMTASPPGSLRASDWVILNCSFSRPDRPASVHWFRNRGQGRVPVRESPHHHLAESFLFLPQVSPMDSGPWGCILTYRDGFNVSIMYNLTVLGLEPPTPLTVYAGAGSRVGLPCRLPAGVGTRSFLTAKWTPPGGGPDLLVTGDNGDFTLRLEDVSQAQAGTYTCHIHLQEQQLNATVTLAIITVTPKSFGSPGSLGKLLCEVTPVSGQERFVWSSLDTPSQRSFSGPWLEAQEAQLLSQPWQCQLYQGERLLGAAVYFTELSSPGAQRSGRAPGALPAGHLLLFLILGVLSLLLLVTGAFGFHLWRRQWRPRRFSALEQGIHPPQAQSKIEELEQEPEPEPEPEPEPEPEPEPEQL


Tests used:
[1] = molecular target: T3, recombinant human LAG3 expressed with a C-terminal myc-myc-hexahistidine tag (human, UniProt P18627 29-450); assay: SPR, mAb captured, 37 C
T3 construct: also called hLAG3-mmh; hLAG3.mmh
Protocol: (§1) The BiaCore sensor surface was derivatized with either a polyclonal rabbit anti-mouse antibody (GE, # BR-1008-38) or with a monoclonal mouse anti-human Fc antibody (GE, # BR-1008-39) to capture approximately 50-85 RUs of anti-LAG3 monoclonal antibodies, expressed with either a mouse Fc or a human Fc, respectively. […] The binding of the LAG3 reagents to captured monoclonal antibodies was monitored for 4 minutes while their dissociation from the antibodies was monitored for 8 minutes in HBST running buffer (0.01 M HEPES pH 7.4, 0.15 M NaCl, 3 mM EDTA, 0.05% v/v Surfactant P20). Experiments were performed at 25° C. and 37° C. Kinetic association (kₐ) and dissociation (kd) rate constants were determined by processing and fitting the data to a 1:1 binding model using Scrubber 2.0c curve fitting software. Binding dissociation equilibrium constants (KD) and dissociative half-lives (t_{1/2}) were then calculated from the kinetic rate constants as: KD (M)=kd/kₐ and t_{1/2} (min)=[ln2/(60*kd)].

[2] = molecular target: T1, recombinant human LAG3 expressed with a …; assay: SPR, mAb captured, 37 C
Protocol: as §1

[3] = molecular target: T3, recombinant human LAG3 expressed with a …; assay: SPR, mAb captured, 25 C
Protocol: as §1

[4] = molecular target: T1, recombinant human LAG3 expressed with a …; assay: SPR, mAb captured, 25 C
Protocol: as §1

[5] = molecular target: T2, human LAG3 expressed on HEK293 cells; assay: cell adherence assay, blocks RAJI (human MHCII) cells on HEK293-hLAG3
Protocol: Cells were plated into sterile Nunclon™ Delta 96-Well MicroWell™ Black Optical Bottom Plates (Thermo Scientific). The wells from the perimeter of the plate were not included in the assay design to avoid edge effects.
On the day of treatment, all antibodies were serially (1:3) diluted in RPMI media (without FBS or supplements added). The 9-point dilution ranged between 45 pM to 300 nM, with the last dilution point containing no mAb. […] While the plated HEK293-LAG3 cells were incubating with the test or control antibodies, non-adherent B-cells (RAJI or A20) were labeled with Calcein AM using the following procedure. RAJI and A20 suspension cells were harvested and centrifuged at 1,200 rpm for 5 minutes. Cell pellets were resuspended in 1×PBS and counted. Cells were washed with RPMI, and resuspended in RPMI at a concentration of 10⁶ cells per 1 ml. Cells were labeled by adding 5 μL of Calcein AM per 1 ml of cell suspension and incubated for 30 min at 37° C., at 5% CO₂. […] Subsequently, 10 μL of BD Pharmingen Fc Block (0.5 mg/mL) was added per 1 ml of the Calcein AM labeled cells, which were incubated at RT for 10 minutes. The Calcein AM-stained, Fc-blocked RAJI or A20 cells were resuspended in RPMI to a final concentration of 3×10⁶ cells per 1 ml and subsequently used in the adherence assay.
The labeled suspension cells were incubated with the HEK293 monolayer for 1 hour at 37° C., at 5% CO₂.

Kd [1] [pM]	koff [1] [s⁻¹]	kon [1] [M⁻¹ s⁻¹]	t1/2 [1] [h]	Kd [2] [pM]	koff [2] [s⁻¹]	kon [2] [M⁻¹ s⁻¹]	t1/2 [2] [h]	Kd [3] [pM]	koff [3] [s⁻¹]	kon [3] [M⁻¹ s⁻¹]	t1/2 [3] [h]	Kd [4] [pM]	koff [4] [s⁻¹]	kon [4] [M⁻¹ s⁻¹]	t1/2 [4] [h]	IC50 [5] [pM]	Binder
185	7.08e-05	378000	2.72	19.4	1e-05	515000	≥ 19.2	645	0.000101	157000	1.9	≤ 35.2	≤ 1e-05	284000	≥ 19.2	16000	H4sH15498P2 (antibody, V domains shown, H4sH = human IgG4 Fc with 2 or more amino acid changes as disclosed in US20140243504) VH: EVQLVESGGGLVQPGGSLRLSCAASGFTFTSYAMTWVRQAPGKGLEWVSDISGSGGRTYYADSVKGRFTISRDNSKNMLYLQMNILRAEDTAVYHCAKGTGQQVDLYNYYYALDVWGQGTTVTVSS VL: not shown
78.3	2.96e-05	381000	6.5	21.7	1e-05	460000	≥ 19.2	260	7.81e-05	301000	2.46	≤ 27.6	≤ 1e-05	363000	≥ 19.2	15000	H4H15498P2 (antibody, human IgG4, V domains shown, H4H = human IgG4 Fc with S108P hinge mutation) VH: EVQLVESGGGLVQPGGSLRLSCAASGFTFTSYAMTWVRQAPGKGLEWVSDISGSGGRTYYADSVKGRFTISRDNSKNMLYLQMNILRAEDTAVYHCAKGTGQQVDLYNYYYALDVWGQGTTVTVSS VL: not shown
266	0.000154	578000	1.25	29.5	0.000101	3.42e+06	1.91	177	7.89e-05	445000	2.44	10.6	1.9e-05	1.8e+06	10.1	6000	H4sH14813N (antibody, human IgG4 S228P, kappa, V domains shown, H4sH = modified human IgG4 Fc) VH: QVQLQQWGAGLLKPSETLSLTCAVYGGSFSGYYWNWIRQPPGKGLEWVGEISHRGSTNYNPSLKSRVTISLDTSKNQFSLKLTSVTAADTAVYYCSRDEELEFRFFDYWGQGTLVTVSS VL: EIVLTQSPATLSLSPGERATLSCRASQSVSSYLAWYQQKPGQAPRLLVYGASNRATGIPARFSGSGSGTDFTLTISSLEPEDFAFYYCQQRSNWPLTFGGGTKVEIKR
32.1	4.08e-05	1.27e+06	4.72	3.99	1e-05	2.5e+06	≥ 19.2	49.3	5.35e-05	1.09e+06	3.6	≤ 4.35	≤ 1e-05	2.3e+06	≥ 19.2	31000	H4H15479P (antibody, human IgG4, V domains shown) VH: QVQLQQWGAGLLNPSETLSLTCAVYGGAFSDYYWNWIRQPPGKGLEWIGEINHRGSTNYNPSLKSRVTISVDTSKNQFSLRMSSVTAADAAVYYCARGEDYDIWNGYYQEKWGQGTLVTVSS VL: EIVLTQSPATLSLSPGERATLSCRASQSISTYLAWYQQKPGQAPRLLIYDASKRATGIPARFSGSGSGTDFTLTISSLEPEDFVVYYCHQRSNWPLTFGGGTKVEIK
284	0.000152	535000	1.27	27.4	0.000117	4.27e+06	1.65	214	8.8e-05	411000	2.19	≤ 10.4	≤ 1e-05	958000	≥ 19.2	17000	H4H14813N (antibody, human IgG4, V domains shown, H4H = human IgG4 Fc with S108P hinge mutation) VH: QVQLQQWGAGLLKPSETLSLTCAVYGGSFSGYYWNWIRQPPGKGLEWVGEISHRGSTNYNPSLKSRVTISLDTSKNQFSLKLTSVTAADTAVYYCSRDEELEFRFFDYWGQGTLVTVSS VL: EIVLTQSPATLSLSPGERATLSCRASQSVSSYLAWYQQKPGQAPRLLVYGASNRATGIPARFSGSGSGTDFTLTISSLEPEDFAFYYCQQRSNWPLTFGGGTKVEIK
1820	–	–	0.377	31.6	–	–	1.17	1230	–	–	0.742	≤ 14.1	–	–	≥ 19.2	3300	H4sH15482P (antibody, human IgG4 S228P, kappa, H4sH = modified human IgG4 Fc; also called mAb1) heavy: QVQLVESGGGVVQPGRSLRLSCVASGFTFSSYGMHWVRQAPGKGLEWVAIIWYDGSNKYYADSVKGRFTISRDNSKNTQYLQMNSLRAEDTAVYYCASVATSGDFDYYGMDVWGQGTTVTVSSASTKGPSVFPLAPCSRSTSESTAALGCLVKDYFPEPVTVSWNSGALTSGVHTFPAVLQSSGLYSLSSVVTVPSSSLGTKTYTCNVDHKPSNTKVDKRVESKYGPPCPPCPAPPVAGPSVFLFPPKPKDTLMISRTPEVTCVVVDVSQEDPEVQFNWYVDGVEVHNAKTKPREEQFNSTYRVVSVLTVLHQDWLNGKEYKCKVSNKGLPSSIEKTISKAKGQPREPQVYTLPPSQEEMTKNQVSLTCLVKGFYPSDIAVEWESNGQPENNYKTTPPVLDSDGSFFLYSRLTVDKSRWQEGNVFSCSVMHEALHNHYTQKSLSLSLGK light: EIVLTQSPATLSLSPGERTTLSCRASQRISTYLAWYQQKPGQAPRLLIYDASKRATGIPARFSGSGSGTGFTLTISSLEPEDFAVYYCQQRSNWPLTFGGGTKVEIKRTVAAPSVFIFPPSDEQLKSGTASVVCLLNNFYPREAKVQWKVDNALQSGNSQESVTEQDSKDSTYSLSSTLTLSKADYEKHKVYACEVTHQGLSSPVTKSFNRGEC
1960	–	–	0.337	89.1	–	–	2.13	972	–	–	0.995	≤ 13.2	–	–	≥ 19.2	15000	H4H15482P (antibody, human IgG4 S228P, kappa, H4H = human IgG4 Fc with S108P) heavy: not shown light: EIVLTQSPATLSLSPGERTTLSCRASQRISTYLAWYQQKPGQAPRLLIYDASKRATGIPARFSGSGSGTGFTLTISSLEPEDFAVYYCQQRSNWPLTFGGGTKVEIKRTVAAPSVFIFPPSDEQLKSGTASVVCLLNNFYPREAKVQWKVDNALQSGNSQESVTEQDSKDSTYSLSSTLTLSKADYEKHKVYACEVTHQGLSSPVTKSFNRGEC
